The labels stand for the following.
B1: NEMO-(197-419) (other, human, UniProt Q9Y6K9 197-419, looked up)
chain: VQVDQLRMQGQSVEAALRMERQAASEEKRKLAQLQVAYHQLFQEYDNHIKSSVVGSERKRGMQLEDLKQQLQQAEEALVAKQEVIDKLKEEAEQHKIVMETVPVLKAQADIYKADFQAERQAREKLAEKKELLQEQLEQLQREYSKLKASCQESARIEDMRKRHVEVSQAPLPPAPAYLSSPLALPSQRRSPPEEPPDFCCPKCQYQAPDMDTLQIHVMECIE
notes: range 197-419; [35S]-labelled in vitro translated; also transfected in COS or HEK293 cells

The target in one test is T1, FLAG-tagged IKKβ (human, UniProt O14920 1-756).
T1 construct: expressed in transfected COS, HEK293 or HeLa cells; also called IKKβ-FLAG; FLAG-IKKβ
T1 sequence (looked up): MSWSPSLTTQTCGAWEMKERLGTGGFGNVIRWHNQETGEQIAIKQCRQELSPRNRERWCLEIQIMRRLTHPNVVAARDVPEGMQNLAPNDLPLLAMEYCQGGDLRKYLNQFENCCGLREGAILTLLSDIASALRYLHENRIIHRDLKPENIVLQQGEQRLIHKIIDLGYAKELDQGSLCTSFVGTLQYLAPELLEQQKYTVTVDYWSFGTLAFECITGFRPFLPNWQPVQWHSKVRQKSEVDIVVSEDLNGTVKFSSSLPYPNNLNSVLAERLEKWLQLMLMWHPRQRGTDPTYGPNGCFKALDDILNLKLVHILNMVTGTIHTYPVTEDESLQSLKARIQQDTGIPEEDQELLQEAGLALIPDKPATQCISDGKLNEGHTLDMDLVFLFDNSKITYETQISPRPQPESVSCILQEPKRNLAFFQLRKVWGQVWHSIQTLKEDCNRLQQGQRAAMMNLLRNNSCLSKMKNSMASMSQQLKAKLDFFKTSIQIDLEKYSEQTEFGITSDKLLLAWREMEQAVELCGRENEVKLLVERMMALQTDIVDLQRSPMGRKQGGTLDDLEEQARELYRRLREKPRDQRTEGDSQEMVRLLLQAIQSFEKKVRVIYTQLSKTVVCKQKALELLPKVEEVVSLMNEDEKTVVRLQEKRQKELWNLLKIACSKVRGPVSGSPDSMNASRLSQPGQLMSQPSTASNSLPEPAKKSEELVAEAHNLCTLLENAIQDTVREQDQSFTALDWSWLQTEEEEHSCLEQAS
The test can be described thus: co-immunoprecipitation from transfected COS or HEK293 cells. How it is done: For all immunoprecipitations HeLa or COS cells grown in six well trays were lysed in 500 µl TNT. FLAG-tagged proteins were precipitated from lysate of transfected cells for two hours at 4° C. using 20 µl of anti-FLAG (M2)-conjugated agarose beads (Sigma). […] For immunoblotting, precipitates were washed three times with TNT, twice with PBS then suspended in SDS-sample buffer. Proteins were separated by SDS-PAGE (10%), transferred to PVDF membranes and visualized by enhanced chemiluminesence (Amersham-Pharmacia).

Test [1] addresses T2, GST alone (UniProt P08515 1-218 = GST).
T2 construct: control bait in the GST pull-downs
The test can be described thus: GST pull-down of [35S]-labelled NEMO truncations. From the text: (§1) Equal amounts of each protein were used for subsequent GST pull-down analyses.

In test [2] the target is T2, GST alone. In words: GST pull-down of in vitro translated protein.
In the test “NEMO-(197-419)” the target is B1. In words: GST pull-down with GST-IKKβ-(644-756).
From the text: as §1

The next test concerns the target T3, NEMO-(86-419) (human, UniProt Q9Y6K9 86-419).
T3 construct: range 86-419; [35S]-labelled in vitro translated; also transfected in COS or HEK293 cells
The test can be described thus: GST pull-down with GST-IKKβ-(644-756).
From the text: as §1

T2 sequence (P08515 whole entry): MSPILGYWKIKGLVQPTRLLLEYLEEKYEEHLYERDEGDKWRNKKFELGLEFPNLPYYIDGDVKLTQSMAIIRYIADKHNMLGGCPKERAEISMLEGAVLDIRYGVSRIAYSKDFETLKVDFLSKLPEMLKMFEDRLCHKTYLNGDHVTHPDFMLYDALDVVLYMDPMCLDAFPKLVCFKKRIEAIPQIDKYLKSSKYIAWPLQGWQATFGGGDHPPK

Consider B1, for which the binding result with FLAG-tagged IKKβ is given as “no binding”.

B2: NEMO-(1-196) (other, human, UniProt Q9Y6K9 1-196, looked up)
chain: MNRHLWKSQLCEMVQPSGGPAADQDVLGEESPLGKPAMLHLPSEQGAPETLQRCLEENQELRDAIRQSNQILRERCEELLHFQASQREEKEFLMCKFQEARKLVERLGLEKLDLKRQKEQALREVEHLKRCQQQMAEDKASVKAQVTSLLGELQESQSRLEAATKECQALEGRARAASEQARQLESEREALQQQHS
notes: [35S]-labelled in vitro translated; also transfected in COS or HEK293 cells
In the case of B2, in the test with GST alone [1], the binding result is listed as “no binding”.

B3: IKKβ-(644-756) (enzyme, human, UniProt O14920 644-756, looked up)
chain: VRLQEKRQKELWNLLKIACSKVRGPVSGSPDSMNASRLSQPGQLMSQPSTASNSLPEPAKKSEELVAEAHNLCTLLENAIQDTVREQDQSFTALDWSWLQTEEEEHSCLEQAS
In the case of B3, in the test with GST alone [2], the binding result is “no binding”.

B4: GST-IKKβ-(644-756) (other, human, UniProt O14920 644-756, looked up)
chain: VRLQEKRQKELWNLLKIACSKVRGPVSGSPDSMNASRLSQPGQLMSQPSTASNSLPEPAKKSEELVAEAHNLCTLLENAIQDTVREQDQSFTALDWSWLQTEEEEHSCLEQAS
notes: bacterially expressed; not shown: glutathione S-transferase (GST) as encoded by vector pGEX-4T1 (Pharmacia)
Consider B4, for which the binding result in the test with NEMO-(197-419) and with NEMO-(86-419) was “no binding” throughout.
